# Laboratory results published in patent publication US20070178093A1.
# How the values were obtained:
# [1] = biological target: human glucocorticoid-induced tumor necrosis factor family-related receptor (TEASR) (human) (UniProt Q9Y5U5); test: cell-based or functional assay
# [2] = biological target: fusion protein comprising the extracellular domain of hTEASR and the cytoplasmic region of Fas, expressed on Ba/F3 cells (human) (UniProt Q9Y5U5); test: cell-based or functional assay
Substance,proliferation of CD4+ T cells in the presence of CD32/CD58/CD80 feeder L cells [1] [fold],proliferation of CD8+ T cells in the presence of CD32 feeder L cells [1] [fold],"apoptotic cell death, 51Cr release from transfected Ba/F3 cells (in the presence of control IgG1) [2] [% release]"
hTEASR-L-Ig fusion protein (from UniProt Q9UNG2 49-177) (Fc fusion),2.5,5.6,
human TEASR ligand (TEASR-L) (from UniProt Q9UNG2 1-177),,,23
